Results as given in PMC8410769, “A CDK-regulated chromatin segregase promoting chromosome replication” (Nature Communications, 2021).

Molecular target: the molecule itself
Experiment: SEC; Superose 6 (3.2/300) in 150 mM KCl, 25 mM Tris-HCl pH 7.2, 5% glycerol, 0.05% NP-40, 1 mM EDTA, 4 mM MgCl2; purified Yta7 and mutants

B1: Yta7 ATP-binding mutant (K460A, Walker A), 3xFLAG-tagged (enzyme, S. cerevisiae, UniProt P40340 1-1379, looked up)
chain: MARNLRNRRGSDVEDASNAKVGYETQIKDENGIIHTTTRSLRKINYAEIEKVFDFLEDDQVMDKDETPVDVTSDEHHNNNQKGDDEDDDVDLVSPHENARTNEELTNERNLRKRKAHDPEEDDESFHEEDVDDDEEEEEADEFEDEYLDEDSKDNNRRRRAADRKFVVPDPDDDEEYDEDDEEGDRISHSASSKRLKRANSRRTRSSRHPETPPPVRRALRSRTRHSRTSNEENDDENDNSRNEALTLADEIRELQEDSPIREKRFLRERTKPVNYKLPPPLTASNAEEFIDKNNNALSFHNPSPARRGRGGWNASQNSGPTRRLFPTGGPFGGNDVTTIFGKNTNFYNQVPSAFSDNNNNKLILDSDSSDDEILPLGVTPKTKKENTQKKKKKKPEIADLDPLGVDMNVNFDDIGGLDNYIDQLKEMVALPLLYPELYQNFNITPPRGVLFHGPPGTGATLMARALAASCSSDERKITFFMRKGADILSKWVGEAERQLRLLFEEAKKHQPSIIFFDEIDGLAPVRSSKQEQIHASIVSTLLALMDGMDNRGQVIVIGATNRPDAVDPALRRPGRFDREFYFPLPDVKARFKILQIQTRKWSSPLSTNFIDKLAFLTKGYGGADLRSLCTEAALISIQRSFPQIYRSNDKLLVDPSKIKVKVSDFMLALKKIVPSSARSTGSSPQPLPELIKPLLADQLNNLKNKLDYMLNIKDTTFQRNTSLLQNFIDYEEYSGEEEEHDKYGGNEDTSSFRSYEFFESMAESQICKPRLLINGPKGNGQQYVGAAILNYLEEFNVQNLDLASLVSESSRTIEAAVVQSFMEAKKRQPSVVFIPNLDIWINTIPENVILVLSGLFRSLQSNEKILLLCLAENLDISEVKNGILSDFAFDKNIFQLHKPSKENITRYFSNLIELLKTKPSDIPMKKRRVKPLPELQKVTSNAAPTNFDENGEPLSEKVVLRRKLKSFQHQDMRLKNVLKIKLSGLMDLFKNRYKRFRKPPIDDAFLVHLFEPETSNDPNWQPAYIKDENMILEVSTGRKFFNMDLDIVEERLWNGYYSEPKQFLKDIELIYRDANTIGDRERVIKASEMFANAQMGIEEISTPDFIQECKATRQRDLERQELFLEDEEKRAAMELEAKEQSQENILQEPDLKDNKANEFGVAAGNQLQAQLQTTINTASIVNNSEVPQPIDTNLYKKEIPAAIPSAVDKEKAVIPEDSGANEEYTTELIQATCTSEITTDDDERARKEPKENEDSLQTQVTEENFSKIDANTNNINHVKEIQSVNKPNSLHETVEKRERSPIPKEVVEPEQGKKSDKELILTPEQIKKVSACLIEHCQNFTVSQLEDVHSSVAKIIWKSKSAWDKTGTVDEIIKFLSE
notes: Yta7, Saccharomyces cerevisiae; K460A mutant of the Walker A motif within the active AAA+ domain; also called ATPase mutant; source: S. cerevisiae (GAL1-10 promoter, G1-arrested, endogenous copy eliminated), purified (anti-FLAG M2, MonoQ, SEC); not shown: 3xFLAG, C-terminal, kept
- stoichiometry N: 6
